Assay [1] addresses T1, human soluble TNFR1 (human, UniProt P19438 30-211).
T1 construct: also called hTNFR1; hTNFR-1
T1 sequence: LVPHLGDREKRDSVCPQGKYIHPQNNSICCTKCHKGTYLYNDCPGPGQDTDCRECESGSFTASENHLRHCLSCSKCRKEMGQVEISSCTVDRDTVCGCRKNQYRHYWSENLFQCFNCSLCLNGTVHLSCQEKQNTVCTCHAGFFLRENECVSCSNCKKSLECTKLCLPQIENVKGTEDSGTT
As to the kind of experiment: SPR; VHH-Fc captured by anti-human IgG (Fc) antibody on CM5 sensor chip, human soluble TNFR1 as analyte. From the text: CM5 sensor chip (Cytiva #BR100530) was coated with an anti-human IgG (Fc) antibody (Cytiva #29234600) to capture the EN1206-BV and EN1208-BV. The human soluble TNFR1 was used as analyte for binding flow.
For orientation: Surface plasmon resonance follows binding to a sensor surface in real time, without labels.

In assay [2] the target is T1, human soluble TNFR1. As to the kind of experiment: SPR; VHH-Fc captured on Series S Protein A sensor chip, human soluble TNFR1 as analyte (0.781-100 nM), 1:1 binding fit. From the text:
(§1) Series S Sensor Chip Protein A (Cytiva #29127556) was used to immobilize the Fc portion of the VHH/Fc proteins. The human soluble TNFR1 and TNFR2 are used for the SPR binding flow.

Assay [3] deals with T2, human soluble TNFR2 (human, UniProt P20333 23-257).
T2 construct: also called hTNFR2; TNF receptor type 2
T2 sequence: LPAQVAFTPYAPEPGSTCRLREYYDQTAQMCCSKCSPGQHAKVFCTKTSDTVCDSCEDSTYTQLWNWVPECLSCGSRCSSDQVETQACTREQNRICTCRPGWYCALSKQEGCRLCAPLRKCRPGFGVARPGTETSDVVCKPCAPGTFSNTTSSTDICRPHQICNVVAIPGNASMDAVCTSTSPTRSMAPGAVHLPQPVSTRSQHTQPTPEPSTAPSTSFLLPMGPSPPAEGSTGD
As to the kind of experiment: SPR; VHH-Fc captured by anti-human IgG (Fc) antibody on CM5 sensor chip, TNFR2 as analyte.

Assay [4] addresses T3, TNFR1 on the cells of the TNF-dependent bioassays (THP1 cells in Examples 4 and 6) (human, UniProt P19438 30-455).
T3 sequence: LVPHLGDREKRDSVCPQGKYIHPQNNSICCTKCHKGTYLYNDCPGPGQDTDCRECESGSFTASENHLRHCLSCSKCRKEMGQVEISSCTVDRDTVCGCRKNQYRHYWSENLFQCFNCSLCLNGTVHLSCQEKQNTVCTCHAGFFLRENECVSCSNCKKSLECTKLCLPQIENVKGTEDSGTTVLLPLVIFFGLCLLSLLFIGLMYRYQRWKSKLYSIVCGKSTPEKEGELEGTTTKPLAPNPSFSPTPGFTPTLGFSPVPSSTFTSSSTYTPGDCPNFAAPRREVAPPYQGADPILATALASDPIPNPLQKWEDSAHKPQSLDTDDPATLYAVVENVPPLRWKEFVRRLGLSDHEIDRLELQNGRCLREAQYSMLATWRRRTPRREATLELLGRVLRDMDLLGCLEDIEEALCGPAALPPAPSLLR
Nature of the assay: cell-based or functional assay.

Assay [5] concerns the target T2, human soluble TNFR2. Nature of the assay: SPR; VHH-Fc captured on Series S Protein A sensor chip, human soluble TNFR2 as analyte.
Excerpt: as §1

Assay [6] deals with T4, Human TNFR1/CD120a protein, His & Avi tag (human, UniProt P19438 30-211).
T4 construct: Captured on HIS1K or streptavidin biosensors; also called TNFR1-His-avi tag protein; immobilized soluble human TNFR1; not shown: His tag and Avi tag
T4 sequence: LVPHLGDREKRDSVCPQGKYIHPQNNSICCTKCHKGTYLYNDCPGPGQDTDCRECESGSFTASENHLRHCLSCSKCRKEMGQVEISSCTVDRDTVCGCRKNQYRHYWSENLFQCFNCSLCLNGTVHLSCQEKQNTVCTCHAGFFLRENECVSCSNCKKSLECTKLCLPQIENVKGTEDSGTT
Nature of the assay: BLI, Octet RED96; TNFR1-His-Avi immobilised on anti-penta-His (HIS1K) biosensor, EN1206-mv 0.412-100 nM. The protocol: An Octet instrument RED96 was used for the assay. Octat anti-penta His biosensor (HIS1K) and Octet Streptavidin (SA) biosensor were used to immobilize the TNFR1-His-avi tag protein. […] Octet RED96 was used to measure the binding affinity of EN1206-mv and EN1208-bv. […] A dose-dependent binding of EN1208-bv to the immobilized TNFR1 on SA chip was detected within the concentration range of 3.7 nm to 300 nM (FIG. 11B).
The experiments started with the determination of the binding specificity and affinity of EN1206 and EN1208 to the immobilized human soluble TNFR1. A concentration-dependent binding of EN1206 and EN1208 to the TNFR1 was observed, respectively (Table 15, FIGS. 11A-11B). Due to a lack of detectable dissociation of EN1208-BV after its binding to the immobilized TNFR1 within the dissociation assay time frame (~5 min), the on-rate (ka) and off-rate (kd) could not be calculated. Thus, an affinity (KD) for EN1208 was estimated (Table 15).
(In general: In BLI a coated tip is dipped into the sample, and binding shifts an interference pattern.)

The target in assay [7] is T5, extracellular domain of TNFR-1 (Example 4) (UniProt P19438 30-211, limits assumed).
T5 construct: extracellular domain; also called TNFR1 extracellular domain
T5 sequence (looked up): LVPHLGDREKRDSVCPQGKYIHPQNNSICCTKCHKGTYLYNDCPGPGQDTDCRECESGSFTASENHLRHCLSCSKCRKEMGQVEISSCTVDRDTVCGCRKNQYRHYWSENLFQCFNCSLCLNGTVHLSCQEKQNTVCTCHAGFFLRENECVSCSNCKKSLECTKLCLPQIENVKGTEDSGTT
As to the kind of experiment: SPR (Biacore method).

Assay [8] has as its target T3, TNFR1 on the cells of the TNF-dependent …. Nature of the assay: cell-based or functional assay. The source holds these as a separate data set.
Assay [9] addresses T5, extracellular domain of TNFR-1 (Example …). Nature of the assay: competition assay, Vhh inhibition of TNF-α binding to TNFR1 extracellular domain; competitor TNF-α. The procedure:
Competition assays of Vhh inhibition of TNF-α binding to TNFR1 extracellular domain also were performed as described in Richter et al. (2019).

Assay [10] addresses T1, human soluble TNFR1. As to the kind of experiment: SPR (format not described).

Values joined by “and” are separate entries in the source; they are usually repeats but may differ in a detail not shown here. Equal values may be shown once.

B1: EN-1206-Fc-BV (Fc fusion)
chain: EVQLLESGGGLVQPGGSLRLSCAASGFTFAHETMVWVRQAPGKGLEWVSHIPPDGQDPFYADSVKGRFTISRDNSKNTLYLQMNSLRAEDTAVYHCALLPKRGPWFDYWGQGTLVTVSSDKTHTCPPCPAPEAAGGPSVFLFPPKPKDTLYITREPEVTCVVVDVSHEDPEVKFNWYVDGVEVHNAKTKPREEQYNSTYRVVSVLTVLHQDWLNGKEYKCKVSNKALGAPIEKTISKAKGQPREPQVYTLPPSRDELTKNQVSLTCLVKGFYPSDIAVEWESNGQPENNYKTTPPVLDSDGSFFLYSKLTVDKSRWQQGNVFSCSVMHEALHNHYTQKSLSLSPGK
notes: Homodimeric, bivalent; In some paragraphs 'EN1206' also means the HSA fusion or the dAb itself; also called EN1206-BV; EN1206 bivalent
In the case of B1, in the assay with human soluble TNFR1 [1], the Kd (in general, the equilibrium constant for the complex coming apart) amounted to 1.49 nM. The same molecule registered a dissociation constant Kd in the assay with human soluble TNFR1 [2] of 0.185 nM. Further, in the assay with human soluble TNFR2 [3], the binding result is “no binding”. Besides, in [4], the “fold improvement over Etanercept in inhibition of IL-8 expression, TNF-stimulated THP1 cells (qPCR)” value is 5.9 fold; the “fold improvement over Etanercept in inhibition of TNF expression, TNF-stimulated THP1 cells (qPCR)” value was determined as 15 fold; the “relative gene expression of IL8/CXCL8 (qPCR, THP1 cells, TNF 100 ng/ml), 1 nM inhibitor, against baseline” value turned out to be 1.75 fold; the “relative potency against 206dAb, suppression of TNF-induced expression of IL8/CXCL8 in THP1 cells, 1 nM” value turned out to be 7 fold. Further, the “relative potency against 206dAb, suppression of TNF-induced expression of TNF in THP1 cells, 1 nM” value in [4] was 6.5 fold.

B2: EN-1206-Fc-MV (Fc fusion)
chain 1: EVQLLESGGGLVQPGGSLRLSCAASGFTFAHETMVWVRQAPGKGLEWVSHIPPDGQDPFYADSVKGRFTISRDNSKNTLYLQMNSLRAEDTAVYHCALLPKRGPWFDYWGQGTLVTVSSDKTHTCPPCPAPEAAGGPSVFLFPPKPKDTLYITREPEVTCVVVDVSHEDPEVKFNWYVDGVEVHNAKTKPREEQYNSTYRVVSVLTVLHQDWLNGKEYKCKVSNKALGAPIEKTISKAKGQPREPQVYTLPPSRDELTKNQVSLWCLVKGFYPSDIAVEWESNGQPENNYKTTPPVLDSDGSFFLYSKLTVDKSRWQQGNVFSCSVMHEALHNHYTQKSLSLSPGK
chain 2: DKTHTCPPCPAPEAAGGPSVFLFPPKPKDTLYITREPEVTCVVVDVSHEDPEVKFNWYVDGVEVHNAKTKPREEQYNSTYRVVSVLTVLHQDWLNGKEYKCKVSNKALGAPIEKTISKAKGQPREPQVYTLPPSRDELTKNQVSLSCAVKGFYPSDIAVEWESNGQPENNYKTTPPVLDSDGSFFLVSKLTVDKSRWQQGNVFSCSVMHEALHNHYTQKSLSLSPGK
notes: One-armed (monovalent) knob-into-hole heterodimer; the leader is cleaved on expression; also called EN1206-MV; EN1206-mv
On to B2, for which, in the assay with human soluble TNFR2 [5], the binding result is given as “no binding”. Further, in [6], the equilibrium dissociation constant (Kd) came out at 0.314 nM; the koff – broadly, a measure of how fast the partners let go of each other – stood at 0.000284 s⁻¹; the kon (commonly a measure of how fast the partners come together) was found to be 903000 M⁻¹ s⁻¹. This molecule also yielded an equilibrium dissociation constant (Kd) in the assay with human soluble TNFR1 [2] of 0.388 nM. Besides, in assay [4], the “fold improvement over Etanercept in inhibition of IL-8 expression, TNF-stimulated THP1 cells (qPCR)” value was 10.6 fold; the “fold improvement over Etanercept in inhibition of TNF expression, TNF-stimulated THP1 cells (qPCR)” value is 6.8 fold; the “relative gene expression of IL8/CXCL8 (qPCR, THP1 cells, TNF 100 ng/ml), 1 nM inhibitor, against baseline” value stood at 1.75 fold; the “relative potency against 206dAb, suppression of TNF-induced expression of IL8/CXCL8 in THP1 cells, 1 nM” value was determined as 9.3 fold. In addition, the “relative potency against 206dAb, suppression of TNF-induced expression of TNF in THP1 cells, 1 nM” value in [4] turned out to be 9 fold.

B3: Vhh-2 (VHH, not shown: small tags and cut ends)
VHH: EVQLLESGGGLVQPGGSLRLSCAASGFTFSQYRMHWVRQAPGKSLEWVSSIDTRGSSTYYADPVKGRFTISRDNSKNTLYLQMNSLRAEDTAVYYCAKAVTMFSPFFDYWGQGTLV
On to B3, for which binding in assay [7] was characterised by a dissociation constant (Kd) of 1000 nM. For the same molecule, the “TNF Dependent Bioassay (IC50): VCAM” value in [8] stood at 3 nM.

B4: Vhh-4 (VHH)
VHH: EVQLLESGGGLVQPGGSLRLSCAASGFTFAHETMVWVRQAPGKGLEWVSHIPPDGQDPFYADSVKGRFTISRDNSKNTLYLQMNSLRAEDTAVYHCALLPKRGPWFDYWGQGTLVTVSS
Consider B4, for which the half-maximal inhibitory concentration (IC50) (as a rule, the concentration that gives 50% inhibition) in assay [9] was roughly 1 nM. In addition, the dissociation constant Kd is 0.00066 nM in [7]; 0.407 nM and 0.3 nM to 0.5 nM (2×) with human soluble TNFR1 [10]. In addition, in [8], the “TNF Dependent Bioassay (IC50): VCAM” value was 0.3 nM.

B5: EN-1000-206 (VHH)
VHH: EVQLLESGGGLVQPGGSLRLSCAASGFTFAHETMVWVRQAPGKGLEWVSHIPPDGQDPFYADSVKGRFTISRDNSKNTLYLQMNSLRAEDTAVYHCALLPKRGPWFDYWGQGTLVTVSS
For B5, the “relative gene expression of IL8/CXCL8 (qPCR, THP1 cells, TNF 100 ng/ml), 1 nM inhibitor, against baseline” value in assay [4] is 8 fold.

(Values after patent publication US20260209374A1 (ENOSI THERAPEUTICS, published 2026).)
